Experiment [1] deals with His-Jo (S. pneumoniae). As to the kind of experiment: covalent complex formation seen by SDS-PAGE; Jo and In partners at 25 μM, pH 7, 20 °C, 60 min; proportion of complex normalised to 100%.
Experiment [2] concerns the target His-Jo (S. pneumoniae). As to the kind of experiment: covalent complex formation seen by SDS-PAGE; 10 μM purified His-Jo and His-In, 50 mM Tris pH 8.0, 200 mM NaCl, 20 °C; 90 min; bands quantified with ImageJ.
Experiment [3] deals with His-Jo (S. pneumoniae). Description: covalent complex formation seen by SDS-PAGE; Jo and In partners at 25 μM, pH 5, 20 °C, 60 min; proportion of complex normalised to 100%.
The target in experiment [4] is His-Jo (S. pneumoniae). As to the kind of experiment: covalent complex formation seen by SDS-PAGE; 10 μM purified His-Jo and His-In, 50 mM Tris pH 8.0, 200 mM NaCl, 20 °C; 180 min; bands quantified with ImageJ.
Experiment [5] has as its target His-Jo (S. pneumoniae). As to the kind of experiment: covalent complex formation seen by SDS-PAGE; Jo and In partners at 25 μM, pH 8, 20 °C, 60 min; proportion of complex normalised to 100%.
Experiment [6] deals with His-Jo (S. pneumoniae). Description: covalent complex formation seen by SDS-PAGE; Jo and In partners at 25 μM, pH 6, 20 °C, 60 min; proportion of complex normalised to 100%.
For experiment [7], the target named is His-Jo (S. pneumoniae). As to the kind of experiment: covalent complex formation seen by SDS-PAGE; His-Jo and In co-expressed in E. coli cytoplasm (pETDuet, IPTG 3 h at 37 °C); crude lysate on denaturing SDS-PAGE, Coomassie blue.
In another experiment the target is CbpE-Jo (S. pneumoniae). Description: confocal fluorescence microscopy of live cells; live pneumococcal cells expressing CbpE-Jo or CbpE-In incubated with exogenous His-GFP-In or PBS, extensive washes; mean maximal GFP intensity of five frames, autofluorescence subtracted.

In the case of His-In (domain or fragment), the percent of complex reconstituted with His-Jo (S. pneumoniae) [1] was found to be 100%; with His-Jo (S. pneumoniae) [2], 60%; with His-Jo (S. pneumoniae) [3] it was 18%; with His-Jo (S. pneumoniae) [4], 100%; with His-Jo (S. pneumoniae) [5], 100%; with His-Jo (S. pneumoniae) [6], 90%.

As to In (domain or fragment), the stoichiometry N with His-Jo (S. pneumoniae) [7] was 1.

His-GFP-In (domain or fragment) yielded a fluorescence signal of the cells (arbitrary units (AU)) in the experiment with CbpE-Jo (S. pneumoniae) of 550.

The term stoichiometry N denotes the number of molecules, sites or subunits per partner or assembly.

(Values after publication PMC5333627.)
